Data as given in US20140348819A1, “Methods of Treating Cancer” (Dana-Farber Cancer Institute, Inc., priority 2011, published 2014).

Tested on: six V600E BRAF melanoma cell lines
Assay: Screening of recombinant RTK ligands for ability to confer resistance to BRAFi (PLX4720) or MEKi (PD184352) (Table 4)
Assay type: cell-based, human
In short: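 Six V600E BRAF melanoma lines treated with PLX4720 or PD184352 after addition of 22 recombinant RTK ligands, scored for drug resistance. Activation of selected RTKs confirmed by western blotting and high-throughput tyrosine kinase phosphorylation profiling.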

B1: MSP (protein, UniProt P26927 19-711, looked up)
Hepatocyte growth factor-like …: QRSPLNDFQVLRGTELQHLLHAVVPGPWQEDVADAEECAGRCGPLMDCRAFHYNVSSHGCQLLPWTQHSPHTRLRRSGRCDLFQKKDYVRTCIMNNGVGYRGTMATTVGGLPCQAWSHKFPNDHKYTPTLRNGLEENFCRNPDGDPGGPWCYTTDPAVRFQSCGIKSCREAACVWCNGEEYRGAVDRTESGRECQRWDLQHPHQHPFEPGKFLDQGLDDNYCRNPDGSERPWCYTTDPQIEREFCDLPRCGSEAQPRQEATTVSCFRGKGEGYRGTANTTTAGVPCQRWDAQIPHQHRFTPEKYACKDLRENFCRNPDGSEAPWCFTLRPGMRAAFCYQIRRCTDDVRPQDCYHGAGEQYRGTVSKTRKGVQCQRWSAETPHKPQFTFTSEPHAQLEENFCRNPDGDSHGPWCYTMDPRTPFDYCALRRCADDQPPSILDPPDQVQFEKCGKRVDRLDQRRSKLRVVGGHPGNSPWTVSLRNRQGQHFCGGSLVKEQWILTARQCFSSCHMPLTGYEVWLGTLFQNPQHGEPSLQRVPVAKMVCGPSGSQLVLLKLERSVTLNQRVALICLPPEWYVVPPGTKCEIAGWGETKGTGNDTVLNVALLNVISNQECNIKHRGRVRESEMCTEGLLAPVGACEGDYGGPLACFTHNCWVLEGIIIPNRVCARSRWPAVFTRVSVFVDWIHKVMRLG
With B1 as the molecule, how does the “ability of recombinant RTK ligand to confer resistance” value (“ability of recombinant RTK ligand” below) (A2058, PD184352 - 1 uM, ligand 0.4 ng/ml) read?
Its value is 1.06.

What about the “ability of recombinant RTK ligand” value (A2058, PD184352 - 1 uM, ligand 1.6 ng/ml) of the same molecule?
Its value is 0.98.

And the “ability of recombinant RTK ligand” value (A2058, PD184352 - 1 uM, ligand 6.25 ng/ml)?
Its value is 1.03.

And the “ability of recombinant RTK ligand” value (A2058, PD184352 - 1 uM, ligand 25 ng/ml)?
Its value is 1.09.

What about the “ability of recombinant RTK ligand” value (A2058, PD184352 - 1 uM, ligand 100 ng/ml) of the same molecule?
The value was 1.05.

What about the “ability of recombinant RTK ligand” value (A2058, PLX4720 - 2 uM, ligand 0.4 ng/ml) of the same molecule?
The value was 1.04.

What about the “ability of recombinant RTK ligand” value (A2058, PLX4720 - 2 uM, ligand 1.6 ng/ml) of the same molecule?
Its value is 1.02.

And the “ability of recombinant RTK ligand” value (A2058, PLX4720 - 2 uM, ligand 6.25 ng/ml)?
The value was 1.05.

And the “ability of recombinant RTK ligand” value (A2058, PLX4720 - 2 uM, ligand 25 ng/ml)?
The value was 1.04.

What about the “ability of recombinant RTK ligand” value (A2058, PLX4720 - 2 uM, ligand 100 ng/ml) of the same molecule?
Its value is 1.05.

And the “ability of recombinant RTK ligand” value (C32, PD184352 - 1 uM, ligand 0.4 ng/ml)?
Its value is 0.99.

What about the “ability of recombinant RTK ligand” value (C32, PD184352 - 1 uM, ligand 1.6 ng/ml) of the same molecule?
The value was 1.02.

And the “ability of recombinant RTK ligand” value (C32, PD184352 - 1 uM, ligand 6.25 ng/ml)?
The value was 1.07.

And the “ability of recombinant RTK ligand” value (C32, PD184352 - 1 uM, ligand 25 ng/ml)?
Its value is 1.01.

What about the “ability of recombinant RTK ligand” value (C32, PD184352 - 1 uM, ligand 100 ng/ml) of the same molecule?
Its value is 0.95.

What about the “ability of recombinant RTK ligand” value (C32, PLX4720 - 2 uM, ligand 0.4 ng/ml) of the same molecule?
The value was 1.07.

What about the “ability of recombinant RTK ligand” value (C32, PLX4720 - 2 uM, ligand 1.6 ng/ml) of the same molecule?
The value was 1.01.

What about the “ability of recombinant RTK ligand” value (C32, PLX4720 - 2 uM, ligand 6.25 ng/ml) of the same molecule?
The value was 1.04.

What about the “ability of recombinant RTK ligand” value (C32, PLX4720 - 2 uM, ligand 25 ng/ml) of the same molecule?
The value was 1.02.

And the “ability of recombinant RTK ligand” value (C32, PLX4720 - 2 uM, ligand 100 ng/ml)?
The value was 0.95.

And the “ability of recombinant RTK ligand” value (Colo 829, PD184352 - 1 uM, ligand 0.4 ng/ml)?
The value was 1.03.

And the “ability of recombinant RTK ligand” value (Colo 829, PD184352 - 1 uM, ligand 1.6 ng/ml)?
The value was 0.98.

What about the “ability of recombinant RTK ligand” value (Colo 829, PD184352 - 1 uM, ligand 6.25 ng/ml) of the same molecule?
The value was 1.01.

And the “ability of recombinant RTK ligand” value (Colo 829, PD184352 - 1 uM, ligand 25 ng/ml)?
Its value is 0.96.

What about the “ability of recombinant RTK ligand” value (Colo 829, PD184352 - 1 uM, ligand 100 ng/ml) of the same molecule?
The value was 0.93.

And the “ability of recombinant RTK ligand” value (Colo 829, PLX4720 - 2 uM, ligand 0.4 ng/ml)?
Its value is 0.98.

What about the “ability of recombinant RTK ligand” value (Colo 829, PLX4720 - 2 uM, ligand 1.6 ng/ml) of the same molecule?
Its value is 0.94.

And the “ability of recombinant RTK ligand” value (Colo 829, PLX4720 - 2 uM, ligand 6.25 ng/ml)?
Its value is 1.03.

What about the “ability of recombinant RTK ligand” value (Colo 829, PLX4720 - 2 uM, ligand 25 ng/ml) of the same molecule?
Its value is 0.97.

And the “ability of recombinant RTK ligand” value (Colo 829, PLX4720 - 2 uM, ligand 100 ng/ml)?
The value was 0.99.

And the “ability of recombinant RTK ligand” value (G-361, PD184352 - 1 uM, ligand 0.4 ng/ml)?
Its value is 1.04.

What about the “ability of recombinant RTK ligand” value (G-361, PD184352 - 1 uM, ligand 1.6 ng/ml) of the same molecule?
The value was 0.96.

And the “ability of recombinant RTK ligand” value (G-361, PD184352 - 1 uM, ligand 6.25 ng/ml)?
Its value is 0.92.

And the “ability of recombinant RTK ligand” value (G-361, PD184352 - 1 uM, ligand 25 ng/ml)?
Its value is 0.98.

What about the “ability of recombinant RTK ligand” value (G-361, PD184352 - 1 uM, ligand 100 ng/ml) of the same molecule?
The value was 0.90.

What about the “ability of recombinant RTK ligand” value (G-361, PLX4720 - 2 uM, ligand 0.4 ng/ml) of the same molecule?
The value was 1.00.

And the “ability of recombinant RTK ligand” value (G-361, PLX4720 - 2 uM, ligand 1.6 ng/ml)?
The value was 0.89.

And the “ability of recombinant RTK ligand” value (G-361, PLX4720 - 2 uM, ligand 6.25 ng/ml)?
Its value is 0.91.

What about the “ability of recombinant RTK ligand” value (G-361, PLX4720 - 2 uM, ligand 25 ng/ml) of the same molecule?
Its value is 0.93.

What about the “ability of recombinant RTK ligand” value (G-361, PLX4720 - 2 uM, ligand 100 ng/ml) of the same molecule?
The value was 0.88.

What about the “ability of recombinant RTK ligand” value (SK-MEL-5, PD184352 - 1 uM, ligand 0.4 ng/ml) of the same molecule?
The value was 0.94.

And the “ability of recombinant RTK ligand” value (SK-MEL-5, PD184352 - 1 uM, ligand 1.6 ng/ml)?
Its value is 1.11.

And the “ability of recombinant RTK ligand” value (SK-MEL-5, PD184352 - 1 uM, ligand 6.25 ng/ml)?
Its value is 1.00.

And the “ability of recombinant RTK ligand” value (SK-MEL-5, PD184352 - 1 uM, ligand 25 ng/ml)?
The value was 0.99.

And the “ability of recombinant RTK ligand” value (SK-MEL-5, PD184352 - 1 uM, ligand 100 ng/ml)?
The value was 1.11.

What about the “ability of recombinant RTK ligand” value (SK-MEL-5, PLX4720 - 2 uM, ligand 0.4 ng/ml) of the same molecule?
The value was 0.87.

And the “ability of recombinant RTK ligand” value (SK-MEL-5, PLX4720 - 2 uM, ligand 1.6 ng/ml)?
The value was 1.03.

What about the “ability of recombinant RTK ligand” value (SK-MEL-5, PLX4720 - 2 uM, ligand 6.25 ng/ml) of the same molecule?
Its value is 0.98.

And the “ability of recombinant RTK ligand” value (SK-MEL-5, PLX4720 - 2 uM, ligand 25 ng/ml)?
Its value is 1.01.

And the “ability of recombinant RTK ligand” value (SK-MEL-5, PLX4720 - 2 uM, ligand 100 ng/ml)?
The value was 1.12.

What about the “ability of recombinant RTK ligand” value (SK-MEL-28, PD184352 - 1 uM, ligand 0.4 ng/ml) of the same molecule?
The value was 0.95.

What about the “ability of recombinant RTK ligand” value (SK-MEL-28, PD184352 - 1 uM, ligand 1.6 ng/ml) of the same molecule?
Its value is 0.94.

And the “ability of recombinant RTK ligand” value (SK-MEL-28, PD184352 - 1 uM, ligand 6.25 ng/ml)?
The value was 1.00.

And the “ability of recombinant RTK ligand” value (SK-MEL-28, PD184352 - 1 uM, ligand 25 ng/ml)?
Its value is 1.01.

What about the “ability of recombinant RTK ligand” value (SK-MEL-28, PD184352 - 1 uM, ligand 100 ng/ml) of the same molecule?
Its value is 0.97.

And the “ability of recombinant RTK ligand” value (SK-MEL-28, PLX4720 - 2 uM, ligand 0.4 ng/ml)?
The value was 0.92.

And the “ability of recombinant RTK ligand” value (SK-MEL-28, PLX4720 - 2 uM, ligand 1.6 ng/ml)?
Its value is 1.02.

What about the “ability of recombinant RTK ligand” value (SK-MEL-28, PLX4720 - 2 uM, ligand 6.25 ng/ml) of the same molecule?
Its value is 1.00.

What about the “ability of recombinant RTK ligand” value (SK-MEL-28, PLX4720 - 2 uM, ligand 25 ng/ml) of the same molecule?
The value was 0.97.

And the “ability of recombinant RTK ligand” value (SK-MEL-28, PLX4720 - 2 uM, ligand 100 ng/ml)?
Its value is 0.93.
